Measured values published in patent JP2018153172A (dated 2018).
Ends that are not written are not given here.

Key:
[1] = target: T1, SEQ ID NO 110 (15-residue oligopeptide of human gp130) (human, also: linker added for immobilisation); experiment: peptide microarray, antibody at 10 ug/mL, fluorescence
T1 construct: also called 配列番号110
T1 peptide: VIILKYNIQYRTKDA

[2] = target: T2, SEQ ID NO 128 (15-residue oligopeptide of human gp130) (human, also: linker added for immobilisation); experiment: as above
T2 construct: also called 配列番号128
T2 peptide: DLKPFTEYVFRIRCM

[3] = target: T3, SEQ ID NO 109 (15-residue oligopeptide of human gp130) (human, also: linker added for immobilisation); experiment: as above
T3 construct: also called 配列番号109
T3 peptide: KSVIILKYNIQYRTK

[4] = target: T4, SEQ ID NO 108 (15-residue oligopeptide of human gp130) (human, also: linker added for immobilisation); experiment: as above
T4 construct: also called 配列番号108
T4 peptide: SIKSVIILKYNIQYR

[5] = target: T5, SEQ ID NO 127 (15-residue oligopeptide of human gp130) (human, also: linker added for immobilisation); experiment: as above
T5 construct: also called 配列番号127
T5 peptide: VQDLKPFTEYVFRIR

[6] = target: T6, 可溶性ヒトgp130受容体 (soluble human gp130 receptor, extracellular region of SEQ ID NO 1 with six histidines) (human, UniProt P40189 23-619); experiment: ELISA, immobilised soluble human gp130, recombinant antibody from COS1 cells
T6 construct: Secreted from CHO DG44 cells and purified on HisTrap; no cleavage site is stated; also called 可溶性ヒトgp130受容体タンパク質; ヒト可溶性gp130受容体
T6 sequence: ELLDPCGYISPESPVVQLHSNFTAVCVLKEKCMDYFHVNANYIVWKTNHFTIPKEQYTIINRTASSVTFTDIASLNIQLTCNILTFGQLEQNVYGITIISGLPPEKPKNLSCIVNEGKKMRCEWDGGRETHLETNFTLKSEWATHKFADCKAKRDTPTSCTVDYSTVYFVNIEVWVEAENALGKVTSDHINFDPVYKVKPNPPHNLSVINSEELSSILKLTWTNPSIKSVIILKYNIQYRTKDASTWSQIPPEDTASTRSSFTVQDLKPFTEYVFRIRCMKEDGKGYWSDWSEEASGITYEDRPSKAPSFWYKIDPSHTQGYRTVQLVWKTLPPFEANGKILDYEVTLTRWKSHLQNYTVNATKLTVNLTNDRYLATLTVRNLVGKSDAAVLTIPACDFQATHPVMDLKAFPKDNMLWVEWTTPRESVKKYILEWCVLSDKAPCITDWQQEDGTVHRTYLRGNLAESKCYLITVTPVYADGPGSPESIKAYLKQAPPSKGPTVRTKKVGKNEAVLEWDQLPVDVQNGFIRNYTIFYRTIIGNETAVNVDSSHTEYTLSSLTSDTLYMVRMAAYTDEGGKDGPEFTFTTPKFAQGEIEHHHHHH

Measured: binding result

B1: 抗体C (antibody C, mouse anti-human gp130 monoclonal antibody) (antibody, V domains shown)
VH: EVQVVESGGDLLLPGGSLKLSCAVSGFTFNAYGMSWVRQTPDKRLELVATINSNGDSTYYPDSVKGRFTISRDNAKHTLYLQMSSLKSEDTAMYYCANFYGGFPYWGQGTLVTVSA
VL: VIVLTQSHKFMSTSVGDRVSITCKASQDVDTAVAWYQQKVGHSPKLLIYWAVTRHTGVPDRFTGSGSGTDFTLTISNVQSEDLADYFCQQYSSYPYTFGGGTKLEIKR
notes: Mouse IgG2a, kappa; Entries are the polypeptides as encoded by the cDNA (leader probably included)
binds: [1] | [2] | [3] | [4] | [5] | [6]
